Test results as given in the supplement of paper PMC10126150.
± gives the standard deviation of the averaged measurements.

System: ATP
Test: switch fluorescence ratio, 500 uM ATP over buffer (Cy3 cluster intensity, sum of 5 cycles each) (fold (ratio)); higher = stronger signal-on switching upon ATP binding; sequences stand for … in TCGTCGGCAGCGTCAGATGTGTATAAGAGACAGTTTTTTTTTTTTTTTTTTTTTTTTT…TC
Conditions: aptamer strand: ATP DNA aptamer (quencher-CACCTGGGGGAGTATTGCGGAGGAAGG + anchor), 100 nM annealed; ATP concentration: 500 uM
Outline: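 Imaging in selection buffer was followed by imaging after 15 min with 500 uM ATP at 22 °C, for Cy3-labelled switching-strand clusters annealed to 100 nM quencher-labelled ATP aptamer on a modified Illumina MiSeq flow-cell. Five of these buffer/ATP cycles ran, separated by NaOH stripping and re-annealing. The fluorescence ratio per cluster is summed target-cycle over summed buffer-cycle Cy3 intensity, averaged per switch-domain sequence; clusters outside 100-1000 RFU were removed.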
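Also: ATP exposure 15 min at 22 °C before imaging.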

GGGTGGACGG
switch fluorescence ratio: 0.993 ± 0.06

GGGTGGAGCT
switch fluorescence ratio: 1 ± 0.019

GGGTGGAGGA
switch fluorescence ratio: 1.008 ± 0.0038

GGGTGGCACA
switch fluorescence ratio: 1 ± 0.0046

GGGTGGCAGC
switch fluorescence ratio: 0.993 ± 0.031

GGGTGGCGAC
switch fluorescence ratio: 0.988 ± 0.014

GGGTGGCTGG
switch fluorescence ratio: 0.961 ± 0.049

GGGTGGGAGG
switch fluorescence ratio: 0.991 ± 0.034

GGGTGGGGCG
switch fluorescence ratio: 1.04 ± 0.043

GGGTGGGGGG
switch fluorescence ratio: 1.01 ± 0.037

GGGTGGTTTG
switch fluorescence ratio: 1.006 ± 0.0097

GGGTGTAACT
switch fluorescence ratio: 0.9812 ± 0.0074

GGGTGTACTT
switch fluorescence ratio: 0.991 ± 0.023

GGGTGTATTT
switch fluorescence ratio: 1.02 ± 0.011

GGGTGTCGGT
switch fluorescence ratio: 0.984 ± 0.024

GGGTGTGAGT
switch fluorescence ratio: 1.03 ± 0.018

GGGTGTGCTT
switch fluorescence ratio: 1.04 ± 0.029

GGGTGTGTGC
switch fluorescence ratio: 1.03 ± 0.08

GGGTGTTACA
switch fluorescence ratio: 1.05 ± 0.022

GGGTGTTAGA
switch fluorescence ratio: 1 ± 0.014

GGGTTAAATT
switch fluorescence ratio: 1.01 ± 0.038

GGGTTAACTT
switch fluorescence ratio: 0.999 ± 0.046

GGGTTAATTT
switch fluorescence ratio: 1 ± 0.028

GGGTTAGCGG
switch fluorescence ratio: 1.01 ± 0.027

GGGTTAGCTG
switch fluorescence ratio: 1.01 ± 0.081

GGGTTAGGAG
switch fluorescence ratio: 0.99 ± 0.029

GGGTTATTAG
switch fluorescence ratio: 0.986 ± 0.018

GGGTTATTGA
switch fluorescence ratio: 0.995 ± 0.01

GGGTTATTTG
switch fluorescence ratio: 1.01 ± 0.045

GGGTTCAGGG
switch fluorescence ratio: 0.977 ± 0.02

GGGTTCATGT
switch fluorescence ratio: 1.006 ± 0.0027

GGGTTCATTC
switch fluorescence ratio: 0.998 ± 0.026

GGGTTCCATT
switch fluorescence ratio: 1.023 ± 0.0075

GGGTTCGTGG
switch fluorescence ratio: 0.997 ± 0.031

GGGTTCTCAG
switch fluorescence ratio: 0.995 ± 0.024

GGGTTCTGGA
switch fluorescence ratio: 1.01 ± 0.019

GGGTTGATCT
switch fluorescence ratio: 0.993 ± 0.011

GGGTTGGGGC
switch fluorescence ratio: 0.999 ± 0.049

GGGTTGGTTA
switch fluorescence ratio: 1 ± 0.04

GGGTTGTCAA
switch fluorescence ratio: 0.975 ± 0.0099

GGGTTGTTAC
switch fluorescence ratio: 1.14 ± 0.069

GGGTTGTTAG
switch fluorescence ratio: 0.996 ± 0.027

GGGTTGTTGG
switch fluorescence ratio: 0.9963 ± 0.0015

GGGTTGTTTC
switch fluorescence ratio: 0.973 ± 0.027

GGGTTTACGA
switch fluorescence ratio: 1.01 ± 0.074

GGGTTTACTG
switch fluorescence ratio: 1 ± 0.022

GGGTTTAGTG
switch fluorescence ratio: 0.962 ± 0.014

GGGTTTCGTT
switch fluorescence ratio: 0.99 ± 0.05

GGGTTTGGGT
switch fluorescence ratio: 1.01 ± 0.053

GGGTTTTACA
switch fluorescence ratio: 0.9813 ± 0.0029

GGGTTTTAGC
switch fluorescence ratio: 1.03 ± 0.076

GGGTTTTCCG
switch fluorescence ratio: 1.02 ± 0.035

GGGTTTTTCT
switch fluorescence ratio: 0.99 ± 0.036

GGTAAAAAGG
switch fluorescence ratio: 0.971 ± 0.022

GGTAAAGGAT
switch fluorescence ratio: 0.991 ± 0.039

GGTAACAGGG
switch fluorescence ratio: 1.02 ± 0.032

GGTAACGAGG
switch fluorescence ratio: 0.963 ± 0.039

GGTAACGTTT
switch fluorescence ratio: 0.985 ± 0.027

GGTAAGATCG
switch fluorescence ratio: 0.9785 ± 0.0077

GGTAAGGGCC
switch fluorescence ratio: 1.01 ± 0.034

GGTAATAGGG
switch fluorescence ratio: 0.996 ± 0.036

GGTAATTAAA
switch fluorescence ratio: 0.974 ± 0.011

GGTACAGGGA
switch fluorescence ratio: 1.02 ± 0.015

GGTACGAAAC
switch fluorescence ratio: 1.68 ± 0.75

GGTACGAACG
switch fluorescence ratio: 1.29 ± 0.045

GGTACGAGGT
switch fluorescence ratio: 0.972 ± 0.019

GGTACGTGCA
switch fluorescence ratio: 0.99 ± 0.024

GGTACGTTGG
switch fluorescence ratio: 1.02 ± 0.0078

GGTACTAGGC
switch fluorescence ratio: 1.04 ± 0.08

GGTACTGAGC
switch fluorescence ratio: 1.03 ± 0.061

GGTACTTGGA
switch fluorescence ratio: 1.04 ± 0.032

GGTACTTGTT
switch fluorescence ratio: 1.05 ± 0.052

GGTAGAGCTG
switch fluorescence ratio: 1 ± 0.018

GGTAGATGCG
switch fluorescence ratio: 1.03 ± 0.04

GGTAGCAAGT
switch fluorescence ratio: 1.05 ± 0.034

GGTAGCGAAA
switch fluorescence ratio: 1.009 ± 0.0051

GGTAGGAAAC
switch fluorescence ratio: 0.994 ± 0.045
